The target in assay [1] is Mut6T110S biotin labeled HCV core peptide (hepatitis C virus). Description: EIA; Ab 250 ng/mL captured on anti-mouse Fc; bt-peptide 500 ng/mL.
For assay [2], the target named is Mut1T110N biotin labeled HCV core peptide (hepatitis C virus). The description is as above.
The target of assay [3] is C113T109N biotin labeled HCV core peptide (hepatitis C virus). The description is as above.
For assay [4], the target named is 92-133 biotin labeled HCV core peptide (hepatitis C virus) (UniProt P26664). The description is as above.
Assay [5] addresses Mut6T110S biotin labeled HCV core peptide (hepatitis C virus). Put plainly: EIA; Ab 7.813 ng/mL captured on anti-mouse Fc; bt-peptide 500 ng/mL.
Assay [6] addresses Mut1T110N biotin labeled HCV core peptide (hepatitis C virus). The assay is described as above.
For assay [7], the target named is C113T109N biotin labeled HCV core peptide (hepatitis C virus). Described as above.
Assay [8] addresses 92-133 biotin labeled HCV core peptide (hepatitis C virus) (UniProt P26664). The assay is described as above.
Assay [9] concerns the target Mut1T110N biotin labeled HCV core peptide (hepatitis C virus). Put plainly: EIA; Ab 3.906 ng/mL captured on anti-mouse Fc; bt-peptide 500 ng/mL.
Assay [10] addresses C113T109N biotin labeled HCV core peptide (hepatitis C virus). Described as above.
In assay [11] the target is Mut6T110S biotin labeled HCV core peptide (hepatitis C virus). Put plainly: EIA; Ab 0.977 ng/mL captured on anti-mouse Fc; bt-peptide 500 ng/mL.
For assay [12], the target named is Mut1T110N biotin labeled HCV core peptide (hepatitis C virus). The assay is described as above.
Assay [13] deals with C113T109N biotin labeled HCV core peptide (hepatitis C virus). Described as above.
In assay [14] the target is 92-133 biotin labeled HCV core peptide (hepatitis C virus) (UniProt P26664). Described as above.
Assay [15] has as its target Mut6T110S biotin labeled HCV core peptide (hepatitis C virus). Put plainly: EIA; Ab 1.953 ng/mL captured on anti-mouse Fc; bt-peptide 500 ng/mL.
Assay [16] concerns the target Mut1T110N biotin labeled HCV core peptide (hepatitis C virus). Described as above.
The target of assay [17] is C113T109N biotin labeled HCV core peptide (hepatitis C virus). The assay is described as above.
Assay [18] deals with 92-133 biotin labeled HCV core peptide (hepatitis C virus) (UniProt P26664). Described as above.

For the substance HCV C11-3 monoclonal antibody, the signal at 492 nm was 1.83 OD 492 nm in assay [1]; 0.0857 OD 492 nm in assay [2]; 0.0963 OD 492 nm in [3]; 1.68 OD 492 nm in [4]; 0.344 OD 492 nm in assay [5]; 0.0966 OD 492 nm in [6]. Moreover, the signal at 492 nm in [7] stood at 0.119 OD 492 nm; in [8], 0.562 OD 492 nm; in [9] it was 0.079 OD 492 nm; in assay [10], 0.0833 OD 492 nm; in assay [11], 0.101 OD 492 nm; in assay [12], 0.0755 OD 492 nm. Moreover, the signal at 492 nm came out at 0.104 OD 492 nm in assay [13]; 0.116 OD 492 nm in [14]; 0.0964 OD 492 nm in assay [15]; 0.0854 OD 492 nm in assay [16]; 0.114 OD 492 nm in [17]; 0.134 OD 492 nm in assay [18].

The record behind these values is US20170052184A1.
